Substrate in this data set: O=P(O)(O)O[C@H]1O[C@H](CO)[C@@H](O)[C@H](O)[C@H]1O
Nature of the data set: purified protein. The note with it: synthetic direction, glucosyl donor 0.5-10 mM, 20 mM D-glucose, 1 mM MgCl2, 10 mM DTT, Tris-HCl pH 7.5, 60 °C.

Description: Pi release from G-1-P, molybdate assay, Hanes-Woolf plot on TaCDP (initially TaCBP; THA_1941)

B1: TaCDP (initially TaCBP; THA_1941) (Thermosipho africanus TCF52B) (protein)
chain: MKKFDFVIENYSKQKLFSSFLPGIAGKNGIPLWVFYVNRGQCIASFGIENKANSILEFKPAGQSHTDTPLKGFRTFIKVDGRYYEPFSELTNFKREMRINKNSLEIEERNNELGLKVKVIYFVLPNEDFAALVRRVEIENEDKYEKHIEIIDGLPEVIPYGVSNGLYKEMGYTARAWMHVYNYEKKVPFYSVRTTIGDLEIVEEINNGYFYFASSGDELLEVIYDKNVLFGNSTSLQVPLVFKELGIKEVLRKEQYDENLLPSAFGVLERKLKDKVVINSMIGFSKEKGLINNNINTLKKDEYIISKKEEADLIVEELVSEIKTKTSNKLFDKYCEQNYLDNVLRGGYPLVFENKDGKVVYHIYSRKHGDLERDYNFFVLEAKKYSQGNGNFRDVAQNRRNDVIFHPEIEDFNLSMFVNLIQADGNNPLVVKGTRFKFEGDPSILDGVNEELKEFILNNYFTPGEILEKLKDKNVNEDEFVSKILYHSSQHEQAEFGEGYWIDHWTYLMDLVDTYKEIYPDKLQKTLFEKFEYKIYDSHAYVKPRKEKYKLYKGKVRQIAAVGESHEKLKIIQERGHNYLTDRNGNIYKTNMFEKLLLLAVNKFATLDPYGMGLEMEANKPGWNDALNGLPALFGSGMSETFELKRLINFMYEELKKYNKDIEVFEELQEFIQKIKVELENYFNDNDQFIYWDNVSNAKEEYRSKVFYSITGNKKKISKVELLAILKKMIKKLDEGIERAKNYGKGIYPTFFTYELVDYEVIDGVIIPKKFEVNVLPYFLEGIVRAFKVIDKDEKKKLYDFVKNSNIYDKKLKMYKTSESILNQPYSIGRIRAFTPGWLENESVFMHMEFKYLLELIKSDMLEEFYEDIKTALPPYMDYKVYGRSILENSSFIVSSANSNPNLHGQGFYARLSGSTAEFLSMWKYMFIGDKLFTLENNELTFTFEPKINKEFFENGVIEFKLFSKTKVKYVNPQLKEKIGRIEVFVDGKKFEIHGNKIKGELAHKLRNKKIDEVICYFE
A word on the Km: it is the substrate concentration at which the rate is half of its maximum. A word on the kcat: it is the maximal rate divided by the concentration of active sites. For orientation: kcat/Km means the second-order rate constant that governs catalysis at low substrate concentration. B1: the Km came out at 1570 ± 200 µM, the kcat was found to be 7.61 ± 0.66 s⁻¹ and the kcat/Km was found to be 4850 M⁻¹ s⁻¹.
